Measured values published in PMC8096239, “Nse5/6 is a negative regulator of the ATPase activity of the Smc5/6 complex”.

Molecular target: Smc5/6 holo-complex (S5-S6-N2/N1-N3-N4);Nse5/6 (Saccharomyces cerevisiae;Saccharomyces …, UniProt Q08204;Q12749;P38632;Q07913;Q05541;P43124;Q03718;P40026 …, |)
Experiment: EMSA; purified super-complex containing Nse5/6; no significant perturbation vs holo-complex; EMSA: 200 nM hairpin, 20 mM HEPES-NaOH pH 7.5, 150 mM NaCl, 0.5 mM TCEP, 30 min at 4 C; 0.8% TBE-agarose gel, 50 V, 3 h, 4 C
Conditions: protein: recombinant;recombinant, tags: Smc5-FLAG, Smc6-AVI-HIS, HA-Nse2, HIS-TEV-Nse1, Nse3 untagged, Nse4-HALO-Myc;Nse5-C.tag (GAAEPEA), HIS-3C-Nse6, copies: 1;1;1;1;1;1;1;1, label: fluorescein on position 5 of thymine, 6-carbon spacer, 48 bp stem, 4 nt loop AATA, blunt end

B1: oligonucleotide C, self-annealed dsDNA hairpin (structured_DNA)
DNA: ATCAGTACTTGTCAACACGAGCAGCCCGTATATTCTCCTACAGCACTAAATATAGTGCTGTAGGAGAATATACGGGCTGCTCGTGTTGACAAGTACTGAT
modifications: internal fluorescein-dT (iFT), between S3 and S4 (position 51, in loop)
Q: Does B1 bind?
A: Result: binds
